From US20120095193A1 (published 2012)
Numbering of substitutions follows the chain as printed. Values belong to the binder of their own block, whether it stands above or below them.

Experiments:
human ADAMTS5 [1] = molecular target: T1, human ADAMTS5 (human, UniProt Q9UNA0 262-622, limits assumed); assay: Biacore, mAb from culture supernatant captured on anti-human IgG, ADAMTS5 (R&D 2198-AD) at 64 nM, 1:1 fit
T1 construct: Octet and ELISA used 'recombinant human ADAMTS5'; also called recombinant human ADAMTS5; ADAMTS5 (R&D Systems 2198-AD)
T1 sequence: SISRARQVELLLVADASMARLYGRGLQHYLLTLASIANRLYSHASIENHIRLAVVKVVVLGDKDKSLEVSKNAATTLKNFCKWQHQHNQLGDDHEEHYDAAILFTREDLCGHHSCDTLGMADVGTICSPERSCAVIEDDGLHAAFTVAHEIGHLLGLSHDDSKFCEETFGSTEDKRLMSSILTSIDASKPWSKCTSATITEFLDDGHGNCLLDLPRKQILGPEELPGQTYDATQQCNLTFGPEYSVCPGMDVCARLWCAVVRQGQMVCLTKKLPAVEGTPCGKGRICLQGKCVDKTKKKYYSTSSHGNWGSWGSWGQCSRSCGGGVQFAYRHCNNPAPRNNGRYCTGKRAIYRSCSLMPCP
Description: Anti-human IgG (Biacore™, BR-1008-39) was immobilized on a CM5 chip by primary amine coupling. This surface was then used to capture the humanized antibodies, ADAMTS5 (R&D Systems 2198-AD) was then passed over the captured antibody at a single concentration of 64 nM, regeneration was carried out using 100 mM phosphoric acid followed by 3M MgCl₂. The binding curves were double referenced with buffer injection (i.e. 0 nM) and the data was fitted to the T100 analysis software using the 1:1 model. The run was carried out at 25° C., using HBS-EP as the running buffer. All antibodies were captured from tissue culture supernatants unless specified.

human ADAMTS5 [2] = molecular target: T1, human ADAMTS5; assay: Biacore, mAb down, no avidity
human ADAMTS5 [3] = molecular target: T1, human ADAMTS5; assay: Octet QK, antigen down, incl avidity

B1: BPC1644 (antibody, human IgG1, kappa, V domains shown)
VH: EVQLVESGGGLVQPGGSLRLSCAASGFTSSDAWMDWVRQAPGKGLEWVAEIRNKANNHARHYAESVKGRFTISRDNAKNSLYLQMNSLRAEDTAVYYCTRTYYYGSSYGYCDVWGQGTLVTVSS
VL: DIQMTQSPSSLSASVGDRVTITCRTSENIYSYLAWYQQKPGKAPKLLVYNAKTLAEGVPSRFSGSGSGTDFTLTISSLQPEDFATYYCQHHYGTPWTFGQGTKLEIKR
notes: Humanized, human gamma 1 / kappa; also called 7B4 H3L1
Kd (human ADAMTS5 [1]): 1.05 nM
koff (human ADAMTS5 [1]): 0.00157 s⁻¹
kon (human ADAMTS5 [1]): 1.49e+06 M⁻¹ s⁻¹

B2: BPC1637 (antibody, human IgG1, kappa, V domains shown)
VH: B1 VH
VL: B1 VL with V48I
notes: Humanized, human gamma 1 / kappa; also called 7B4 H3L0
Kd (human ADAMTS5 [1]): 0.86 nM
koff (human ADAMTS5 [1]): 0.000963 s⁻¹
kon (human ADAMTS5 [1]): 1.12e+06 M⁻¹ s⁻¹

B4: BPC1635 (antibody, human IgG1, kappa, V domains shown)
VH: B1 VH with S29F
VL: B1 VL with V48I
notes: Humanized, human gamma 1 / kappa; also called 7B4 H1L0
Kd (human ADAMTS5 [1]): 1.17 nM
koff (human ADAMTS5 [1]): 0.000826 s⁻¹
kon (human ADAMTS5 [1]): 704000 M⁻¹ s⁻¹

B5: BPC1646 (antibody, human IgG1, kappa, V domains shown)
VH: B1 VH with L81V
VL: B1 VL
notes: Humanized, human gamma 1 / kappa; also called 7B4 H5L1
Kd (human ADAMTS5 [1]): 1.03 nM
koff (human ADAMTS5 [1]): 0.00184 s⁻¹
kon (human ADAMTS5 [1]): 1.79e+06 M⁻¹ s⁻¹

B6: BPC1641 (antibody, human IgG1, kappa, V domains shown)
VH: B1 VH with S29F, T99A
VL: B1 VL
notes: Humanized, human gamma 1 / kappa; also called 7B4 H0L1
Kd (human ADAMTS5 [1]): 1.32 nM
koff (human ADAMTS5 [1]): 0.000945 s⁻¹
kon (human ADAMTS5 [1]): 714000 M⁻¹ s⁻¹

B7: BPC1640 (antibody, human IgG1, kappa, V domains shown)
VH: B1 VH with N76D, L81V
VL: B1 VL with V48I
notes: Humanized, human gamma 1 / kappa; also called 7B4 H6L0
Kd (human ADAMTS5 [1]): 1.08 nM
koff (human ADAMTS5 [1]): 0.000849 s⁻¹
kon (human ADAMTS5 [1]): 787000 M⁻¹ s⁻¹

B9: BPC1642 (antibody, human IgG1, kappa, V domains shown)
VH: B1 VH with S29F
VL: B1 VL
notes: Humanized, human gamma 1 / kappa; also called 7B4 H1L1
Kd (human ADAMTS5 [1]): 1.36 nM
koff (human ADAMTS5 [1]): 0.00121 s⁻¹
kon (human ADAMTS5 [1]): 887000 M⁻¹ s⁻¹

B11: BPC1639 (antibody, human IgG1, kappa, V domains shown)
VH: B1 VH with L81V
VL: B1 VL with V48I
notes: Humanized, human gamma 1 / kappa; also called 7B4 H5L0
Kd (human ADAMTS5 [1]): 0.964 nM
koff (human ADAMTS5 [1]): 0.000894 s⁻¹
kon (human ADAMTS5 [1]): 927000 M⁻¹ s⁻¹

B13: BPC1645 (antibody, human IgG1, kappa, V domains shown)
VH: B1 VH with N76D
VL: B1 VL
notes: Humanized, human gamma 1 / kappa; also called 7B4 H4L1
Kd (human ADAMTS5 [1]): 1.04 nM
koff (human ADAMTS5 [1]): 0.00116 s⁻¹
kon (human ADAMTS5 [1]): 1.12e+06 M⁻¹ s⁻¹

B15: BPC1638 (antibody, human IgG1, kappa, V domains shown)
VH: B1 VH with N76D
VL: B1 VL with V48I
notes: Humanized, human gamma 1 / kappa; also called 7B4 H4L0
Kd (human ADAMTS5 [1]): 0.95 nM
koff (human ADAMTS5 [1]): 0.000831 s⁻¹
kon (human ADAMTS5 [1]): 875000 M⁻¹ s⁻¹

B17: BPC1643 (antibody, human IgG1, kappa, V domains shown)
VH: B1 VH with T99A
VL: B1 VL
notes: Humanized, human gamma 1 / kappa; also called 7B4 H2L1
Kd (human ADAMTS5 [1]): 1.05 nM
koff (human ADAMTS5 [1]): 0.00143 s⁻¹
kon (human ADAMTS5 [1]): 1.36e+06 M⁻¹ s⁻¹

B18: BPC1636 (antibody, human IgG1, kappa, V domains shown)
VH: B1 VH with T99A
VL: B1 VL with V48I
notes: Humanized, human gamma 1 / kappa; also called 7B4 H2L0
Kd (human ADAMTS5 [1]): 0.836 nM
koff (human ADAMTS5 [1]): 0.000896 s⁻¹
kon (human ADAMTS5 [1]): 1.07e+06 M⁻¹ s⁻¹

B21: BPC1634 (antibody, human IgG1, kappa, V domains shown)
VH: B1 VH with S29F, T99A
VL: B1 VL with V48I
notes: Humanized, human gamma 1 / kappa; also called 7B4 H0L0; Humanized 7B4.1E11 H0L0
Kd (human ADAMTS5 [2]): 0.869 nM
Kd (human ADAMTS5 [3]): 0.205 nM
Kd (human ADAMTS5 [1]): 0.869 nM
koff (human ADAMTS5 [1]): 0.000481 s⁻¹
kon (human ADAMTS5 [1]): 554000 M⁻¹ s⁻¹

B22: BPC1656 (antibody, human IgG1, kappa, V domains shown)
VH: EVQLLESGGGLVQPGGSLRLSCAASGFTFSDAWMDWVRQAPGKGLEWVSEIRHKANDHAIFYDESVKGRFTISRDNSKNTLYLQMNSLRAEDTAVYYCTSPFAYWGQGTLVTVSS
VL: DIQMTQSPSSLSASVGDRVTITCKASQSVGTTIVWYQQKPGKAPKLLIYSASNRHTGVPSRFSGSGSGTDFTLTISSLQPEDFATYYCQQYTSYPFTFGQGTKLEIKR
notes: Humanized, human gamma 1 / kappa; also called 12F4 H1L0
Kd (human ADAMTS5 [1]): 0.624 nM
koff (human ADAMTS5 [1]): 0.000395 s⁻¹
kon (human ADAMTS5 [1]): 633000 M⁻¹ s⁻¹

The next lines start with the values.

Kd (human ADAMTS5 [1]): 0.978 nM
koff (human ADAMTS5 [1]): 0.00145 s⁻¹
kon (human ADAMTS5 [1]): 1.48e+06 M⁻¹ s⁻¹
B3: BPC1647 (antibody, human IgG1, kappa, V domains shown)
VH: B1 VH with N76D, L81V
VL: B1 VL
notes: Humanized, human gamma 1 / kappa; also called 7B4 H6L1

Kd (human ADAMTS5 [1]): 1.27 nM
koff (human ADAMTS5 [1]): 0.0013 s⁻¹
kon (human ADAMTS5 [1]): 1.02e+06 M⁻¹ s⁻¹
B8: BPC1649 (antibody, human IgG1, kappa, V domains shown)
VH: B1 VH with S29F
VL: B1 VL with K45Q
notes: Humanized, human gamma 1 / kappa; also called 7B4 H1L2

Kd (human ADAMTS5 [1]): 1.19 nM
koff (human ADAMTS5 [1]): 0.00315 s⁻¹
kon (human ADAMTS5 [1]): 2.65e+06 M⁻¹ s⁻¹
B10: BPC1651 (antibody, human IgG1, kappa, V domains shown)
VH: B1 VH
VL: B1 VL with K45Q
notes: Humanized, human gamma 1 / kappa; also called 7B4 H3L2

Kd (human ADAMTS5 [1]): 1.16 nM
koff (human ADAMTS5 [1]): 0.0026 s⁻¹
kon (human ADAMTS5 [1]): 2.24e+06 M⁻¹ s⁻¹
B12: BPC1653 (antibody, human IgG1, kappa, V domains shown)
VH: B1 VH with L81V
VL: B1 VL with K45Q
notes: Humanized, human gamma 1 / kappa; also called 7B4 H5L2

Kd (human ADAMTS5 [1]): 1.08 nM
koff (human ADAMTS5 [1]): 0.00212 s⁻¹
kon (human ADAMTS5 [1]): 1.96e+06 M⁻¹ s⁻¹
B14: BPC1652 (antibody, human IgG1, kappa, V domains shown)
VH: B1 VH with N76D
VL: B1 VL with K45Q
notes: Humanized, human gamma 1 / kappa; also called 7B4 H4L2

Kd (human ADAMTS5 [1]): 1.09 nM
koff (human ADAMTS5 [1]): 0.00343 s⁻¹
kon (human ADAMTS5 [1]): 3.14e+06 M⁻¹ s⁻¹
B16: BPC1650 (antibody, human IgG1, kappa, V domains shown)
VH: B1 VH with T99A
VL: B1 VL with K45Q
notes: Humanized, human gamma 1 / kappa; also called 7B4 H2L2

Kd (human ADAMTS5 [1]): 1.09 nM
koff (human ADAMTS5 [1]): 0.00114 s⁻¹
kon (human ADAMTS5 [1]): 1.04e+06 M⁻¹ s⁻¹
B19: BPC1654 (antibody, human IgG1, kappa, V domains shown)
VH: B1 VH with N76D, L81V
VL: B1 VL with K45Q
notes: Humanized, human gamma 1 / kappa; also called 7B4 H6L2

Kd (human ADAMTS5 [1]): 1.21 nM
koff (human ADAMTS5 [1]): 0.000951 s⁻¹
kon (human ADAMTS5 [1]): 788000 M⁻¹ s⁻¹
B20: BPC1648 (antibody, human IgG1, kappa, V domains shown)
VH: B1 VH with S29F, T99A
VL: B1 VL with K45Q
notes: Humanized, human gamma 1 / kappa; also called 7B4 H0L2

Kd (human ADAMTS5 [1]): 0.312 nM
koff (human ADAMTS5 [1]): 0.00014 s⁻¹
kon (human ADAMTS5 [1]): 448000 M⁻¹ s⁻¹
B23: BPC1658 (antibody, human IgG1, kappa, V domains shown)
VH: B22 VH with S49A, L81V
VL: B22 VL
notes: Humanized, human gamma 1 / kappa; also called 12F4 H3L0

Kd (human ADAMTS5 [1]): 0.129 nM
koff (human ADAMTS5 [1]): 7.54e-05 s⁻¹
kon (human ADAMTS5 [1]): 585000 M⁻¹ s⁻¹
B24: BPC1657 (antibody, human IgG1, kappa, V domains shown)
VH: B22 VH with N76D
VL: B22 VL
notes: Humanized, human gamma 1 / kappa; also called 12F4 H2L0
